Test results published in paper PMC5156906.
Blank lines part the entries; values can stand above or below the binder they belong to.

Biological target: Calcineurin A subunit alone, residues 1-348 (human) (UniProt Q08209)
Test: ITC; NFAT peptides, PALB2 or SYDE2 titrated into calcineurin in the cell; 25 °C; 20 mM Tris pH 7.5, 100 mM NaCl, 1.0 mM CaCl2, 0.5 mM TCEP; one set of sites model with n=1; averages of >=3 experiments (SYDE2: 2)

- Kd: 2.4 µM
B1: NFATc1 LxVP long peptide 383…400 (peptide)
peptide: DDQYLAVPQHPYQWAKPK

- Kd: 4.1 µM
B2: NFATc1 PxIxIT peptide 116…124 (peptide)
peptide: ESPRIEITS
